From patent publication US9371519B2, “Complex type sugar chain hydrolase” (National Institute of Advanced Industrial Science and …, priority 2011, dated 2016)
“Also recorded” adds a separate entry of the source.

Assay: Detection of transglycosidase activity (HPLC, MS of transglycosylation product)
Type: biochemical
Conditions: donor 2 mM NGA2-Asn-Fmoc, acceptor 50 mM p-nitrophenylglucose, pH 6.0, 30° C.
Experimental: (§1) The transglycosidase activity of Endo-Om was detected by incubating the reaction solution containing a biantennary complex type sugar chain as the substrate, acceptor molecules (p-nitrophenylglucose), and an Endo-Om partially purified enzyme solution at 30° C. for 3 hours, and then subjecting it to HPLC after the completion of the reaction; a new peak different from the hydrolysate was detected, and was identified by MS analysis to be a transglycosylation product including an acceptor molecule to which a biantennary complex type sugar chain is added (FIG. 7).
as §1, with “Endo-Cp” for “Endo-Om”, “11).” for “7).”
as §1, with “of Endo-Pa” for “of Endo-Om”, “an Endo-Pa” for “an Endo-Om”, “for 16” for “for 3”, “(FIG. 15).” for “(FIG. 7).”
The transglycosidase activity of Endo-Om was detected as follows. The reaction solution containing a sodium acetate buffer at a final concentration of 100 mM (pH 6.0), 2 mM NGA2-Asn-Fmoc, 50 mM acceptor molecule (p-nitrophenylglucose), and an Endo-Om purified enzyme solution (total volume: 10 μl) was incubated at 30° C. for 3 hours, and heated at 95° C. for 5 minutes to stop the enzyme reaction. The total amount of the reaction solution was subjected to HPLC by the method described in Example 4, and detection was carried out using a UV detector (274 nm). In addition, the peak corresponding to a transglycosylation product was collected, freeze-dried, and then redissolved in Milli-Q water and subjected to mass spectrometry using MALDI-QIT-TOFMS (AXIMA-QIT, Shimadzu Co., Ltd.), thereby identifying the transglycosylation product.
The transglycosidase activity of Endo-Cp was detected as follows. […]
The transglycosidase activity of Endo-Pa was detected as follows. […]

B1: Endo-Cp: endo-β-N-acetylglucosaminidase from Candida parapolymorpha DL-1 ATCC26012, amino acid sequence SEQ ID NO. 5, 745 amino acids (protein, listed as Candida parapolymorpha)
chain: MPRNTAKHSSLPQTNLPLSSLESSFFDSLDELANWERRIHEKSFELDELNKPTEKLAHYTRARQQSTSEDVKLLVCHDLKGGYQVNEDEDPLGYFPHPDGQHYFLQYPQLVDKFVYFSHHRVSIPPVSWINVCHRNAIKCLGTVIFEGNTYRDFEEADKLLTKQDGEYVFVRCLVALVEYFQFDGYLFNIETRFSNTRIASLLEPFLEQLRAELHVRNPSTELIWYDSYIYPENRVLYKNGVTEANYNFFSCCDSFFTNYWWNVKHLQDNIKNVGVLGSRLKVYAGYDVWGRGTMIGKGGYDSALACQMIKKYRSNVALFAPAWTYEYLARKDFTQNDTRFWIGLFDGESSMATTFKPYSSPLYKINDSNFVFYTNFGSGEGCAFYECGEKVYRDNWVNGSLQMEIPYAIHTRNKNGIQWTLSKEDSFHGGSCVEIKYNEVVDDKGYQVFNNQTINSFSLFSFVQDCSFPTVNVKLTYKLNHKTKSFFKLKIGYYIERRYRTVQKVRSGCLVVPLLSTNDQWFTIEEPFHVSLQNSHEFIVLDSATIFYEETEDPFMRAHVVEDQSTSSVIDNEEYEKLMNSEIYFDDEDEDWILVPSDISMESTDNGGRENHTWKVISNQIRKKHPKSHPSTSPVLKLGELAIINANDYPSDSFFKLMPVNSIDVRRWEGKILLIWKTNQDSVLYHLIFVDDVFQGISLVSKFVFEDQAVDEKSFKTKSGGSTKVRIDTVNRLGILVKGTDM
**Q.** With B1 as the molecule, how does the Transglycosidase activity (3 hours) read?
**A.** significant transglycosidase activity was confirmed; also recorded: has activity for transferring the cleaved sugar chain to any acceptor molecule

B2: Endo-Pa: endo-β-N-acetylglucosaminidase from Pichia anomala ATCC36904, amino acid sequence SEQ ID NO. 9, 656 amino acids (protein, listed as Pichia anomala)
chain: MQHDHAAIKFEEDSISSQRFSSLDEVEKWYNTKNRSPLDDLRIPRESLSHYNRFRDNNDEIKVLVCHDFKGNYQEGEDENPLGYFPHSSGQHYFIQFPSLVDLFIFFSHYKIAVPPVSWINSLHRQGIPVLGTLIFEGTDVSESDKLLEKNENGDFKYLEILCELVRHYGFDGWLVNMESHFSSVAKAQDLLLFDEALRSTLHLKVPGSKLIWYDSLITQKNRVFYQNAVNEWNYDHFSTSDLFFTNYWWNEEDLKRNILNIGLQGVKQKLFVGVDIWGRGSRIGNGGFESGLAINYLKRYSTNVALFAPAWTYENFEEDQFLIKDRKFWIGDQTSDETGGSVATYVSHYTTPVYVKDQNVKFYTNFSVGEGTKYRVFAHTVFKNNWVNGNLQLPTPIIDNEKRIDIYYKESFNGGSSLKVTQRNSILNDGKSNILQLFSFKNDIHSNNLNVSVSFKYLSEIPLNSTFQLEIKFYIERRYRSVTRVRDGTFKLPLAFSNKNWKYIETSFALPRLQIREHFVLEGLQIRWVDNVDELSSSIGTSGDFTESWIIVPQNSDPNAVYELLIGDLLVEGIKTANGNIDAVTKLSRKITLDSRSILATWKDDTEVLYWIIYVNAKFLGIAHKSLWRVQRGDKLRVDVFTRSGKLVKGEDIFI
**Q.** Which Transglycosidase activity (16 hours) does the source give for B2 here?
**A.** significant transglycosidase activity was confirmed; also recorded: has activity for transferring the cleaved sugar chain to any acceptor molecule

B3: Endo-Zr: endo-β-N-acetylglucosaminidase from Zygosaccharomyces rouxii ATCC2623, amino acid sequence SEQ ID NO. 13, 639 amino acids (protein, listed as Zygosaccharomyces rouxii)
chain: MKRINQVPGKPEITSLYFDDLNSLQRWFDKGFMDSRDLSNVPKERYSNYVKFEKDSIITIPNLSARKTEIIVCHDFKGGYQSGHDLYPNGQYGTESCKPYSLRYPEIVDKFVYFSHHCVTIPPSPWTNYLHRHSIPVLGTLILEHYPHNGELFKKNAKGEFLYVKYLVELCRKFHFEGWLINFETVFGNNSKQVIPFLRELTARVECEIYGGSVIWYDAFTTFSNKPSHQNEVNLFNYDAYENSSQFMTNYMWDSHNVGNSLRNVGALGMHSHVALGVDVWGRNMQVCRGGFESNIAIYYAKRFGTNAVIFAPGWTYENFGEDQFYEKDDIFWGNIKSTLQLDSYSDSQLSSWFVSESKKTRYFTTFFSTGSGNFFNLNGRRISNDNWVQLGLSTPFPVNSHSYLSFKDSFVGGSCLALPLSPMENGKLHLFRFEQFIKDQQKTSDSEIRVKLSYKSLGALPPVKLVIKCFVIRRGKRSKTILKVDDVSLVLPLSHSACQTAQGSTKWAVVEQIVPLPSLESRFLEEYYVEDAHLEWTMDNNHDEWLMVPERTEDLDCKLLIGSLCLEIGPHEDNNKRQIVRNGPQLSWQDNESSFMWLKLQDGKLDSVLFTPTTKVNGKQPTILECGRNGTLKFVVKK
**Q.** Which Transglycosidase activity (16 hours) does the source give for B3 here?
**A.** not detected; also recorded: transglycosidase activity was not confirmed

B4: Endo-Om: endo-β-N-acetylglucosaminidase from methylotrophic yeast Ogataea minuta IFO10746, amino acid sequence SEQ ID NO. 1, 772 amino acids (protein, listed as Ogataea minuta)
chain: MAQSQLLGGAVRPVFFDKLEELRRWHTQSANLSRESELDSLNVATEPFSSYERAQTGSGSRSSEPVPGDKEDPPIKLMVCHDFKGGYQDYEDAQPLGYFPHPTGSRYFLQYPQLIDQFVYFSHHRVTVPPVNWINFCHRNGIKCFGTVIFEGNASKDFEELDRLVSRDEKGDFVFVDALIKLAAHYGFDGYLLNIETTFSNTKIAADLEPFAEQLKSGLHCLDSKNELIWYDSYVFPANKVSYTNGVTESNYNFFSLSDAFFSNYWWNIKNLQENIKNVGVLGVQKKIYVGYDVWGRGTLVGKGGFDSSLACKMIAKFKSNVALFAPAWTYESLGPKDFNQNDARFWIGLFENESSISSTVPPHSSAVYKINESSFIFYTNFSSGEGNRFFSKGSEVYRKNWVNGSLQFDLPIDLHRKDKNGLQWALDKSDAFHGGACLEIKYSEIKDENGYQIFNNQMVSDFTLFNFTKECHFPTVNVKVTYKLNHKTKSTFKIKIKYIIERRFRSVQTVRTGYLTIPLLSTSGKWFTVEESFQINLQTSHEYIVLESAHVTYDEDRSADSFFRSYIVEDSAITSVIDNEEYEKLINSEIYNDDEDEDWILVPSDVSISSSESQSNDSKTQYLGRKLFGNKSTPKTRTLEGTAPLLRIGEFAIISANNYPSSNFLAVTSVKSIESSRLEGDSLVLLNWQVGEGHQKGVCYYIIYVNGAVVGLSVAPKFIYQDTELASENSASARSNYKKSGLGSSSDRKSKVRVDSVDKLGNVFTGSEVWV
**Q.** With B4 as the molecule, how does the Transglycosidase activity (3 hours) read?
**A.** has activity for transferring the cleaved sugar chain to any acceptor molecule; also recorded: significant transglycosidase activity was confirmed
